The values that follow come from article PMC8881611, “A mechanism of origin licensing control through autoinhibition of S. cerevisiae ORC·DNA·Cdc6” (Nature Communications, 2022).

The target of assay [1] is T1, ScORC·DNA·Cdc6 with MBP-tagged ORC holding Orc6 ΔCBN (Orc6Δ1-120), ORC untreated (S. cerevisiae, UniProt P54784 1-914; P32833 1-620; P54790 1-616; P54791 1-529; P50874 1-479; P38826 …).
T1 construct: Orc1, S. cerevisiae, wild type; Orc2, S. cerevisiae, wild type; Orc3, S. cerevisiae, wild type; Orc4, S. cerevisiae, wild type; Orc5, S. cerevisiae, wild type; Orc6, S. cerevisiae, truncation Orc6Δ1-120 (lacks the N-terminal cyclin box fold); Cdc6, S. cerevisiae, wild type; The unstructured linker region of Orc6ΔCBN is prone to proteolytic cleavage during expression and purification; also called …
Nature of the assay: pull-down; amylose pulldown, ORC with MBP-tagged Orc4 as bait; 0.5 uM ScORC, 0.5 uM 84 bp ARS1 dsDNA, 1 uM ScCdc6, 10 uM ScMcm7 (titrations 1.5, 5, 10 uM), 2 mM ATPγS; 25 mM HEPES pH 7.5, 300 mM potassium acetate, 10 mM magnesium acetate, 1 mM DTT; on ice; maltose elution, Coomassie-stained SDS-PAGE. To be noted: both partners purified.

In assay [2] the target is T2, ScORC·DNA·Cdc6 with MBP-tagged ORC holding Orc6 ΔCBN (Orc6Δ1-120), ORC phosphorylated by CDK (S. cerevisiae, UniProt P54784 1-914; P32833 1-620; P54790 1-616; P54791 1-529; P50874 1-479; P38826 …, ORC treated with CDK; phosphorylated sites not printed | ORC treated with CDK; phosphorylated sites not given).
T2 construct: Orc1, S. cerevisiae, wild type; Orc2, S. cerevisiae, wild type; Orc3, S. cerevisiae, wild type; Orc4, S. cerevisiae, wild type; Orc5, S. cerevisiae, wild type; Orc6, S. cerevisiae, truncation Orc6Δ1-120 (lacks the N-terminal cyclin box fold); Cdc6, S. cerevisiae, wild type; ORC phosphorylated by CDK before assembly with DNA, Cdc6 and ATPγS; also called Orc6 ΔCBN, CDK; Orc6^ΔN120; source: MBP-ORC: …
The assay is described as above. The settings on record: both partners purified.

B1: S. cerevisiae Mcm7 (ScMcm7) (natural protein, UniProt P38132 1-845, looked up)
chain: MSAALPSIQLPVDYNNLFNEITDFLVTFKQDTLSSDATRNENEDENLDAENIEQHLLEKGPKYMAMLQKVANRELNSVIIDLDDILQYQNEKFLQGTQADDLVSAIQQNANHFTELFCRAIDNNMPLPTKEIDYKDDVLDVILNQRRLRNERMLSDRTNEIRSENLMDTTMDPPSSMNDALREVVEDETELFPPNLTRRYFLYFKPLSQNCARRYRKKAISSKPLSVRQIKGDFLGQLITVRGIITRVSDVKPAVEVIAYTCDQCGYEVFQEVNSRTFTPLSECTSEECSQNQTKGQLFMSTRASKFSAFQECKIQELSQQVPVGHIPRSLNIHVNGTLVRSLSPGDIVDVTGIFLPAPYTGFKALKAGLLTETYLEAQFVRQHKKKFASFSLTSDVEERVMELITSGDVYNRLAKSIAPEIYGNLDVKKALLLLLVGGVDKRVGDGMKIRGDINVCLMGDPGVAKSQLLKAICKISPRGVYTTGKGSSGVGLTAAVMKDPVTDEMILEGGALVLADNGICCIDEFDKMDESDRTAIHEVMEQQTISISKAGINTTLNARTSILAAANPLYGRYNPRLSPLDNINLPAALLSRFDILFLMLDIPSRDDDEKLAEHVTYVHMHNKQPDLDFTPVEPSKMREYIAYAKTKRPVMSEAVNDYVVQAYIRLRQDSKREMDSKFSFGQATPRTLLGIIRLSQALAKLRLADMVDIDDVEEALRLVRVSKESLYQETNKSKEDESPTTKIFTIIKKMLQETGKNTLSYENIVKTVRLRGFTMLQLSNCIQEYSYLNVWHLINEGNTLKFVDDGTMDTDQEDSLVSTPKLAPQTTASANVSAQDSDIDLQDA
notes: Mcm7, S. cerevisiae; migrates as a doublet on SDS-PAGE; source: E. coli BL21 RIL, purified (HisTrap, amylose, TEV cleavage, HisTrap, gel filtration); not shown: His6, N-terminal, cleaved; MBP, N-terminal, cleaved
B1: the binding result in assay [1] and in assay [2] was “binds” throughout.
